Reference: patent US20050153366, “Protein-protein interaction antagonist screening libraries based upon 1,4-disubstituted naphthalenes and related scaffolds” (published 2005)

Target: T1, PBX1 (residues 233-319) (mouse/human, UniProt P40424 P40424:233-319)
T1 sequence: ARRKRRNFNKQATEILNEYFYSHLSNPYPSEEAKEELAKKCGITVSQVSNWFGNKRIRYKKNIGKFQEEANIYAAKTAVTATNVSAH
Assay: EMSA; binary PBX1/DNA complex; inhibited by compound 31, not by compound 15
Settings: label: 32P (Klenow fill-in with alpha-32P-dCTP); annealed with overhangs extended by Klenow

B1: HOXPBX-CT probe (dsDNA)
DNA 1: CTCTCCTTTTGATTGATTAA
DNA 2: AGAGCTTAATCAATCAAAAGG
binding result: binds
